# Measured values taken from US20200222503A1.
# Columns and labels:
# FcRn = assay: SPR
# FcγR1A = assay: SPR
# [1] = target: FcRn-His (Example 11) (Mus musculus (Mouse)) (UniProt Q61559); assay: SPR, BioRad ProteOn XPR 360, His-tagged target on chip
# [2] = target: OX40-His (Example 11) (Mus musculus (Mouse)) (UniProt P47741); assay: as above
# [3] = target: PD-L2-His (Example 11) (Mus musculus (Mouse)) (UniProt Q9WUL5); assay: as above
# mPD-L1-His (murine) = mPD-L1-His (murine) (UniProt Q9EP73); assay: as above
# mPD-L1-His (murine), sequence (Q9EP73 19-238 limits assumed): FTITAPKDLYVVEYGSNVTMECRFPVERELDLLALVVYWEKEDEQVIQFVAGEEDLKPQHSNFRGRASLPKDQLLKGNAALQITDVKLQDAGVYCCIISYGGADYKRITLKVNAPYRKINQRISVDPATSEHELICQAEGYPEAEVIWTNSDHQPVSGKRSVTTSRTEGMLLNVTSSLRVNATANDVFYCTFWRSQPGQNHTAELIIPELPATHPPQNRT
# PD1-Fc (recombinant control protein, Example 11) (Fc fusion), sequence (Q02242 25-169): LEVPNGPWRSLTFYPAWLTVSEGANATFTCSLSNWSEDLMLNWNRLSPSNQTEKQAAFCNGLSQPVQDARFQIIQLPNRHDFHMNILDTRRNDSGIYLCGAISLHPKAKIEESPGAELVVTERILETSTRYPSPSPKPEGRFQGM
# OX40-His (Example 11) (Mus musculus (Mouse)), sequence (P47741 20-211 limits assumed, form in doubt): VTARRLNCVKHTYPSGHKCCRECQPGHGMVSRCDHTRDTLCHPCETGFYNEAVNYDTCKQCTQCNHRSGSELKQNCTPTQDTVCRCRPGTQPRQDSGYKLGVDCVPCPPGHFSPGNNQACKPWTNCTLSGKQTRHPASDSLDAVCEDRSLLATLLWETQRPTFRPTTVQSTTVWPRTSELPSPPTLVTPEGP
# OX40L-Fc (recombinant control protein, Example 11) (Fc fusion), sequence (P43488 51-198): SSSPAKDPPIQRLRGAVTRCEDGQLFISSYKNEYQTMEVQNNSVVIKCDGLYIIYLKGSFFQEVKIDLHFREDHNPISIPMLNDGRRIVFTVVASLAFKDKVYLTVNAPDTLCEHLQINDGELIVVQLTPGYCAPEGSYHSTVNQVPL
# PD-L2-His (Example 11) (Mus musculus (Mouse)), sequence (Q9WUL5 20-221 limits assumed, form in doubt): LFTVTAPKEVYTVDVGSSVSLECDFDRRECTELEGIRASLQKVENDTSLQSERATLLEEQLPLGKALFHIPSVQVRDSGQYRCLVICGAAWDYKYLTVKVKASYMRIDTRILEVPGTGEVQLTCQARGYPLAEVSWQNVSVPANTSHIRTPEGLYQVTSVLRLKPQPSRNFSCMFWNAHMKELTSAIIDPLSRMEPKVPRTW
# FcRn-His (Example 11) (Mus musculus (Mouse)), sequence (Q61559 22-297 limits assumed, form in doubt, chain 1 of 2): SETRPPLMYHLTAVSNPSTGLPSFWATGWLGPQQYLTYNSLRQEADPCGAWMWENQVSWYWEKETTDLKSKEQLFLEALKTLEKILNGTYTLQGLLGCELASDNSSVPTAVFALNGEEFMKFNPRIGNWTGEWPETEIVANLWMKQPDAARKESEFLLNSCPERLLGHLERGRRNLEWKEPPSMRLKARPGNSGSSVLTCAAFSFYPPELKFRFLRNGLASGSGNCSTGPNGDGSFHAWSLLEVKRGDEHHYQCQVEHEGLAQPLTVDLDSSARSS
# FcRn-His (Example 11) (Mus musculus (Mouse)), sequence (beta, as listed by the source limits assumed, form in doubt, chain 2 of 2): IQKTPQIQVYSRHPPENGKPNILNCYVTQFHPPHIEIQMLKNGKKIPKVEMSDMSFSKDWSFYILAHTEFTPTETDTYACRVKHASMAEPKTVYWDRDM
substance,measurement,setting,value
IgG1,Kd,FcRn,0.00487 µM
same,Kd,FcγR1A,0.0177 µM
"IgG2A (control protein, Example 11) (antibody)",Kd,[1],0.00808 µM
same,koff,[1],0.0242 s⁻¹
same,kon,[1],3e+06 M⁻¹ s⁻¹
"OX40L-Fc (recombinant control protein, Example 11) (Fc fusion)",Kd,[2],0.00106 µM
same,koff,[2],0.000712 s⁻¹
same,kon,[2],674000 M⁻¹ s⁻¹
"PD1-Fc (recombinant control protein, Example 11) (Fc fusion)",Kd,[3],0.0231 µM
same,koff,[3],0.00171 s⁻¹
same,kon,[3],47900 M⁻¹ s⁻¹
same,Kd,mPD-L1-His (murine),0.0333 µM
same,koff,mPD-L1-His (murine),0.00108 s⁻¹
same,kon,mPD-L1-His (murine),32400 M⁻¹ s⁻¹
